Laboratory results: US10117886B2, “Hyaluronidase and a low density second PEG layer on the surface of therapeutic-encapsulated nanoparticles to enhance nanoparticle diffusion and circulation” (priority 2014, dated 2018)
Where a name gives a salt, the structure may show the parent alone. Read-outs that look alike come from different tables or passages of the source.

B1: free PH20: recombinant human hyaluronidase PH20 obtained from Halozyme, Inc, unconjugated (protein, UniProt P38567 36-490, looked up)
Hyaluronidase PH-20: LNFRAPPVIPNVPFLWAWNAPSEFCLGKFDEPLDMSLFSFIGSPRINATGQGVTIFYVDRLGYYPYIDSITGVTVNGGIPQKISLQDHLDKAKKDITFYMPVDNLGMAVIDWEEWRPTWARNWKPKDVYKNRSIELVQQQNVQLSLTEATEKAKQEFEKAGKDFLVETIKLGKLLRPNHLWGYYLFPDCYNHHYKKPGYNGSCFNVEIKRNDDLSWLWNESTALYPSIYLNTQQSPVAATLYVRNRVREAIRVSKIPDAKSPLPVFAYTRIVFTDQVLKFLSQDELVYTFGETVALGASGIVIWGTLSIMRSMKSCLLLDNYMETILNPYIINVTLAAKMCSQVLCQEQGVCIRKNWNSSDYLHLNPDNFAIQLEKGGKFTVRGKPTLEDLEQFSEKFYCSCYSTLSCKEKADVKDTDAVDVCIADGVCIDAFLKPPMETEEPQIFYNASPSTLS

How the values were obtained:
[1] = test system: 4T1 tumors; test: Antitumor efficacy in mouse 4T1 syngeneic breast tumor model; assay type: in vivo; details: 2 mg/kg DOX; (MST treated/MST control −1)×100
Description: Efficacy of the nanoparticles produced in Example 2 was evaluated in a mouse 4T1 syngeneic breast tumor model, in which the host BALB/c mouse is immune-competent, and the tumor growth and metastatic spread of 4T1 cells closely mimic human breast cancer. Female BALB/c mice at 6 weeks were ordered and within a one-week stay, 50 μL of 1×10^7 4 T1 cells/mL in PBS was injected at the mammary fat pad on the right flank of the mice. Tumor size was calculated using V=0.5×width^2×length.
The nanoparticles with encapsulated DOX produced in Example 2 were used to treat tumors in a mouse 4T1 syngeneic breast tumor model BALB/c mice. The mice were randomly assigned into 4 groups and injected with saline, free DOX in saline, DOX-PLGA-PEG-NPs and DOX-PLGA-PEG-PH20-NPs (PH20 activity of DOX-PLGA-PEG-PH20-NPs is 500 U/mouse) at 2 mg/kg mice of DOX at 9, 11, 14, 17, 20 days after inoculation of 4T1 cells in the mice. The tumors reached a size of 150-250 mm^3 at day 9 before treatment. Tumor sizes were monitored throughout the whole study (FIG. 14A). The survival rate was studied based on the number of mice in each group that survived over time. MST (day) was defined as the time at which half of the mice had died.
The percentage ILS (%) was calculated using the following equation: ILS (%)=[(MST of treated group/MST of control group) −1]*100. […]

[2] = test system: pericellular HA matrix of 4T1 cells; test: Degradation of pericellular HA of 4T1 cells (HA staining, RBC exclusion assay); assay type: cell-based, mouse
Description: The nanoparticles produced in Example 2 were tested on tumor cell line 4T1, which synthesizes HA and forms a layer of HA matrix around the cells. 4T1 cells were maintained in a RPMI-1640 medium (ATCC) containing 10% fetal bovine serum in 5% CO2 in an incubator at 37° C. 4T1 cells were cultured on round glass coverslips in a 12-well plate for one day to reach 70% confluency before treatment with the nanoparticles. DiD-labeled PLGA-PEG-NPs (no PH20 activity) and DiD-labeled PLGA-PEG-PH20-NPs (conjugated 10 U/mL PH20 activity) were used for this test. The amount of nanoparticles in all samples was equalized via fluorescence intensity. […]
The 4T1 cells were then washed and fixed and observed under a confocal microscope (Olympus IX81, 60×, C.A.=80 μm) with 405 nm and 635 nm lasers for DAPI and DiD respectively. […] The total fluorescence intensity of DiD was quantified via Image J and averaged by the number of cells.
RBCs were collected fresh from mice and washed three times with PBS before being resuspended in 2% formaldehyde in PBS for fixation of the RBCs overnight at room temperature. […] The areas of exclusion (no RBCs) were quantified through ImageJ. […]

[3] = test system: pericellular HA layer around PC3 cells; test: Degradation of pericellular HA layer around PC3 cells by free PH20; assay type: cell-based, human; details: 1000 U of free PH20 for 1 h
[4] = free PH20, cited from earlier work

Molecule	percentage increased life span ILS (%) [1]	amount of HA around 4T1 cells, RBC exclusion ([2]; 1000 U/mL of PH20, 2 h, 37° C.)	degradation of pericellular HA layer around 4T1 cells ([2]; 3000 U of free PH20 for 1 h)	degradation of pericellular HA layer [3]	circulation half-life [4]	circulation half-life ([4]; listed as PH20)
COc1cccc2c1C(=O)c1c(O)c3c(c(O)c1C2=O)C[C@@](O)(C(=O)CO)C[C@@H]3O[C@H]1C[C@H](N)[C@H](O)[C@H](C)O1 [Free DOX, Doxorubicin Hydrochloride salt]	10%	–	–	–	–	–
B1	–	reduced to a low level that could no longer block RBCs	sufficient to degrade the pericellular HA layer around 4T1 cells	sufficient to degrade the pericellular HA layer around PC3 cells	less than 3 min	3 min
